From patent US20210206841A1 (RESEARCH INSTITUTE AT NATIONWIDE CHILDREN S HOSPITAL, published 2021)

T1: tip-chimeric peptide IhfA5-mIhfB4NTHI (nontypeable Haemophilus influenzae …)
T1 construct: also called IHF(NTHI) tip chimeric peptide; IHFNTHI tip chimeric peptide
T1 peptide: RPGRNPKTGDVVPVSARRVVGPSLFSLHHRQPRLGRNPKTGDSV

T2: native IHFNTHI (integration host factor of nontypeable Haemophilus influenzae) (nontypeable Haemophilus influenzae …, UniProt P43723 1-96; P43724 1-94)
T2 construct: also called NTHI IHF
T2 sequence 1: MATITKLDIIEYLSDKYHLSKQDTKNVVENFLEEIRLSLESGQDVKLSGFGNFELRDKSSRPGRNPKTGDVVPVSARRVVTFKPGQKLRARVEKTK
T2 sequence 2: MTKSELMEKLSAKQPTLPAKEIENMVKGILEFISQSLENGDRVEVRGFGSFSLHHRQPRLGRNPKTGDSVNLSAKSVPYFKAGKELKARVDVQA

T3: tail-chimeric peptide IhfA3-IhfB2NTHI (nontypeable Haemophilus influenzae …)
T3 construct: also called IHF(NTHI) tail chimeric peptide; IHFNTHI tail chimeric peptide
T3 peptide: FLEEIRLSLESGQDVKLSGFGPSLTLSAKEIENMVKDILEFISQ


How the values were obtained:
[1] = biological target: T1, tip-chimeric peptide IhfA5-mIhfB4NTHI; assay: SPR Biacore 3000, peptide immobilized, HuMab as analyte
[2] = biological target: T1, tip-chimeric peptide IhfA5-mIhfB4NTHI; assay: direct ELISA #2, peptide coated (curves reaching equilibrium)
[3] = biological target: T1, tip-chimeric peptide IhfA5-mIhfB4NTHI; assay: direct binding ELISA: tip chimeric peptide coated at 2 ug/mL, antibody titrated 1:3 in 8 points, anti-human IgG Fc-HRP, absorbance at 450 nm [panel B]
[4] = biological target: T1, tip-chimeric peptide IhfA5-mIhfB4NTHI; assay: direct ELISA #1, peptide coated (curves not reaching equilibrium)
[5] = biological target: T2, native IHFNTHI (integration host factor …); assay: SPR Biacore 3000, IHFNTHI immobilized, HuMab as analyte
[6] = biological target: T2, native IHFNTHI (integration host factor …); assay: SPR Biacore 3000, HuMab immobilized, IHFNTHI as analyte
[7] = biological target: T1, tip-chimeric peptide IhfA5-mIhfB4NTHI; assay: SPR Biacore 3000, HuMab immobilized, peptide as analyte
[8] = biological target: T3, tail-chimeric peptide IhfA3-IhfB2NTHI; assay: SPR Biacore 3000, peptide immobilized, HuMab as analyte
[9] = biological target: T3, tail-chimeric peptide IhfA3-IhfB2NTHI; assay: direct ELISA #2, peptide coated (curves reaching equilibrium)
[10] = biological target: T2, native IHFNTHI (integration host factor …); assay: SPR Biacore 3000, HuMab immobilized, IHFNTHI as analyte; remark: listed apart in the source
[11] = biological target: T3, tail-chimeric peptide IhfA3-IhfB2NTHI; assay: direct ELISA #1, peptide coated (curves not reaching equilibrium)
[12] = biological target: T3, tail-chimeric peptide IhfA3-IhfB2NTHI; assay: SPR Biacore 3000, HuMab immobilized, peptide as analyte

Binder | Kd [8] | koff [8] | kon [8] | EC50 [9] | Kd [10] | koff [10] | kon [10] | EC50 [11] | Kd [12] | koff [12] | kon [12] | further results
humanized anti-tip monoclonal antibody, heavy chain SEQ ID NO: 3 and light chain SEQ ID NO: 8 (antibody, V domains shown, also called H10212 (1F8.F1 Humanized HC3) + L10211 (1F8.F1 Humanized LC2)) VH: EVKLVQSGAEVKKPGASVKVSCKASGFTFRTYAMSWVRQAPGQRLEWVATIGSDRRHTYYPDKFQGRVTITRDNAKNTLYMELSSLRSEDTAVYYCVGPYDGYYGEFDYWGQGTLVTVSS VL: DVVMTQSPLSLPVTLGQPASISCRSSQSLLDSDGKTFLNWLQQRPGQSPRRLIYLVSKRDSGVPDRFSGSGSGTDFTLKISRVEAEDVGVYYCWQGTHFPYTFGQGTKLEIKR | – | – | – | – | – | – | – | – | – | – | – | Kd [1]: 7 nM; koff [1]: 0.00035 s⁻¹; kon [1]: 51000 M⁻¹ s⁻¹; EC50 [2]: 0.0934 µg/mL; EC50 [3]: 0.086 µg/mL; EC50 [4]: 0.066 µg/mL; Kd [5]: 115 nM; koff [5]: 0.00021 s⁻¹; kon [5]: 1800 M⁻¹ s⁻¹; Kd [6]: 245 nM; koff [6]: 0.0018 s⁻¹; kon [6]: 7500 M⁻¹ s⁻¹; Kd [7]: 20 nM; koff [7]: 0.0019 s⁻¹; kon [7]: 95000 M⁻¹ s⁻¹
humanized anti-tail monoclonal antibody, heavy chain SEQ ID NO: 5 and light chain SEQ ID NO: 10 (antibody, V domains shown, also called H10214 (11E7.C7 Humanized HC2) + L10213 (11E7.C7 Humanized LC1)) VH: EVQLVESGGGLVKPGGSLRLSCAASGFTFSRYGMSWVRQAPGKGLEWVSTISSGGSYTYYTDSVKGRFTISRDNAKNSLYLQMNSLRAEDTAVYYCERHGGDGYWYFDVWGQGTMVTVSS VL: DIQMTQSPSSLSASVGDRVTITCRASQDISNYLNWYQQKPGKAVKLLIYYTSRLHSGVPSRFSGSGSGTDYTLTISSLQPEDFATYFCQQGNPLRTFGGGTKVEIKR | 6.1 nM | 0.00082 s⁻¹ | 130000 M⁻¹ s⁻¹ | 0.0367 µg/mL | ~3.6 nM | 0.00057 s⁻¹ | 160000 M⁻¹ s⁻¹ | 0.007 µg/mL | 60 nM | 0.00029 s⁻¹ | 4800 M⁻¹ s⁻¹ | –
humanized anti-tail monoclonal antibody, heavy chain SEQ ID NO: 5 and light chain SEQ ID NO: 12 (antibody, V domains shown, also called H10214 (11E7.C7 Humanized HC2) + L10215 (11E7.C7 Humanized LC3)) VH: EVQLVESGGGLVKPGGSLRLSCAASGFTFSRYGMSWVRQAPGKGLEWVSTISSGGSYTYYTDSVKGRFTISRDNAKNSLYLQMNSLRAEDTAVYYCERHGGDGYWYFDVWGQGTMVTVSS VL: DIVMTQSPATLSLSPGERATLSCRASQDISNYLNWYQQKPGQAVRLLIYYTSRLHSGIPARFSGSGSGTDYTLTISSLEPEDFAVYFCQQGNPLRTFGGGTKVEIKR | 9.1 nM | 0.00077 s⁻¹ | 85000 M⁻¹ s⁻¹ | 0.0429 µg/mL | 39 nM | 0.0012 s⁻¹ | 33000 M⁻¹ s⁻¹ | 0.015 µg/mL | 23 nM | 0.00044 s⁻¹ | 20000 M⁻¹ s⁻¹ | –
humanized anti-tail monoclonal antibody, heavy chain SEQ ID NO: 6 and light chain SEQ ID NO: 10 (antibody, V domains shown, also called H10215 (11E7.C7 Humanized HC3) + L10213 (11E7.C7 Humanized LC1)) VH: EVQLVESGGGLVQPGRSLRLSCTASGFTFSRYGMSWVRQAPGKGLEWVATISSGGSYTYYTDSVKGRFTISRDNAKNILYLQMNSLKTEDTAVYYCERHGGDGYWYFDVWGQGTMVTVSS VL: DIQMTQSPSSLSASVGDRVTITCRASQDISNYLNWYQQKPGKAVKLLIYYTSRLHSGVPSRFSGSGSGTDYTLTISSLQPEDFATYFCQQGNPLRTFGGGTKVEIKR | 2.5 nM | 0.00046 s⁻¹ | 180000 M⁻¹ s⁻¹ | 0.0274 µg/mL | 18 nM | 0.00073 s⁻¹ | 25000 M⁻¹ s⁻¹ | 0.013 µg/mL | 72 nM | 0.0013 s⁻¹ | 18000 M⁻¹ s⁻¹ | –
humanized anti-tail monoclonal antibody, heavy chain SEQ ID NO: 5 and light chain SEQ ID NO: 11 (antibody, V domains shown, also called H10214 (11E7.C7 Humanized HC2) + L10214 (11E7.C7 Humanized LC2)) VH: EVQLVESGGGLVKPGGSLRLSCAASGFTFSRYGMSWVRQAPGKGLEWVSTISSGGSYTYYTDSVKGRFTISRDNAKNSLYLQMNSLRAEDTAVYYCERHGGDGYWYFDVWGQGTMVTVSS VL: DIQMTQSPSSLSASVGDRVTITCRASQDISNYLNWYQQKPGKAVKLLIYYTSRLHSGVPSRFSGSGSGTDYTLTISSLQPEDFATYYCQQGNPLRTFGGGTKVEIKR | 6.2 nM | 0.00076 s⁻¹ | 120000 M⁻¹ s⁻¹ | 0.0339 µg/mL | ~4.4 nM | 0.00061 s⁻¹ | 140000 M⁻¹ s⁻¹ | 0.014 µg/mL | 47 nM | 0.00027 s⁻¹ | 5700 M⁻¹ s⁻¹ | –
humanized anti-tail monoclonal antibody, heavy chain SEQ ID NO: 6 and light chain SEQ ID NO: 11 (antibody, V domains shown, also called H10215 (11E7.C7 Humanized HC3) + L10214 (11E7.C7 Humanized LC2)) VH: EVQLVESGGGLVQPGRSLRLSCTASGFTFSRYGMSWVRQAPGKGLEWVATISSGGSYTYYTDSVKGRFTISRDNAKNILYLQMNSLKTEDTAVYYCERHGGDGYWYFDVWGQGTMVTVSS VL: DIQMTQSPSSLSASVGDRVTITCRASQDISNYLNWYQQKPGKAVKLLIYYTSRLHSGVPSRFSGSGSGTDYTLTISSLQPEDFATYYCQQGNPLRTFGGGTKVEIKR | 1 nM | 0.00016 s⁻¹ | 160000 M⁻¹ s⁻¹ | 0.028 µg/mL | ~14.8 nM | 0.00068 s⁻¹ | 46000 M⁻¹ s⁻¹ | 0.011 µg/mL | 67 nM | 0.0013 s⁻¹ | 33000 M⁻¹ s⁻¹ | –
humanized anti-tail monoclonal antibody, heavy chain SEQ ID NO: 6 and light chain SEQ ID NO: 12 (antibody, V domains shown, also called H10215 (11E7.C7 Humanized HC3) + L10215 (11E7.C7 Humanized LC3)) VH: EVQLVESGGGLVQPGRSLRLSCTASGFTFSRYGMSWVRQAPGKGLEWVATISSGGSYTYYTDSVKGRFTISRDNAKNILYLQMNSLKTEDTAVYYCERHGGDGYWYFDVWGQGTMVTVSS VL: DIVMTQSPATLSLSPGERATLSCRASQDISNYLNWYQQKPGQAVRLLIYYTSRLHSGIPARFSGSGSGTDYTLTISSLEPEDFAVYFCQQGNPLRTFGGGTKVEIKR | 2.4 nM | 0.0006 s⁻¹ | 250000 M⁻¹ s⁻¹ | 0.0294 µg/mL | ~143 nM | 0.0011 s⁻¹ | 7700 M⁻¹ s⁻¹ | 0.008 µg/mL | 13 nM | 0.0021 s⁻¹ | 160000 M⁻¹ s⁻¹ | –
